{"source": "patent US20020039577A1", "about": "(published 2002)", "key": {"L104EA29YIg [1]": {"target": "T1, L104EA29YIg (human, UniProt P16410 38-161; P01857 99-330 = IgG part, A29Y; L104E)", "T1 construct": "extracellular domain;domain: hinge, CH2 and CH3 regions of IgC1; Same mobility as dimeric CTLA4Ig; Positions count from methionine +1, not on the UniProt precursor; also called double-site CTLA4 mutant molecule; ATCC PTA-2104", "T1 sequence (P16410 other isoform, or with tags, fused parts or gaps A29Y/L104E)": "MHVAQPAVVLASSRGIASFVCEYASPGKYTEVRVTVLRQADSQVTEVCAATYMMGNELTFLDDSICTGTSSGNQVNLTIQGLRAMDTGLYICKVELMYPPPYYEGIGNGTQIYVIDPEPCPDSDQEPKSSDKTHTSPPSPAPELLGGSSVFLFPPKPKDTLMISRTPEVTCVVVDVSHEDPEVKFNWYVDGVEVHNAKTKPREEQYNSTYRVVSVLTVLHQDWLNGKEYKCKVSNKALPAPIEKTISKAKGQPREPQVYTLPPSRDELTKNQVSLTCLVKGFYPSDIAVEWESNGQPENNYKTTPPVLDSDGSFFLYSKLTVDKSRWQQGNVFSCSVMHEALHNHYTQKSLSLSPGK", "experiment": "flow cytometry on human CD80-transfected CHO cells", "protocol": "(§1) Bound immunoglobulin fusion protein was detected using fluorescein isothiocyanate-conjugated goat anti-human immunoglobulin.\n(§2) Binding on a total of 5,000 viable cells was analyzed (single determination) on a FACScan, and mean fluorescence intensity (MFI) was determined from data histograms using PC-LYSYS."}, "L104EA29YIg [2]": {"target": "T1, L104EA29YIg", "experiment": "flow cytometry on human CD86-transfected CHO cells", "protocol": "as §1, §2"}}}
{"binder": "human CD80 on stably transfected CHO cells (ligand, UniProt P33681 35-288, looked up, whole, on cells; also called CD80-positive CHO cells; CD80+ CHO cells) VIHVTKEVKEVATLSCGHNVSVEELAQTRIYWQKEKKMVLTMMSGDMNIWPEYKNRTIFDITNNLSIVILALRPSDEGTYECVVLKYEKDAFKREHLAEVTLSVKADFPTPSISDFEIPTSNIRRIICSTSGGFPEPHLSWLENGEELNAINTTVSQDPETELYAVSSKLDFNMTTNHSFMCLIKYGHLRVNQTFNWNTTKQEHFPDNLLPSWAITLISVNGIFVICCLTYCFAPRCRERRRNERLRRESVRPV", "values": [{"measurement": "binding result", "setting": "L104EA29YIg [1]", "value": "binds"}]}
{"binder": "human CD86 on stably transfected CHO cells (ligand, UniProt P42081 24-329, looked up, whole, on cells; also called CD86-positive CHO cells; CD86+ CHO cells) APLKIQAYFNETADLPCQFANSQNQSLSELVVFWQDQENLVLNEVYLGKEKFDSVHSKYMGRTSFDSDSWTLRLHNLQIKDKGLYQCIIHHKKPTGMIRIHQMNSELSVLANFSQPEIVPISNITENVYINLTCSSIHGYPEPKKMSVLLRTKNSTIEYDGVMQKSQDNVTELYDVSISLSVSFPDVTSNMTIFCILETDKTRLLSSPFSIELEDPQPPPDHIPWITAVLPTVIICVMVFCLILWKWKKKKRPRNSYKCGTNTMEREESEQTKKREKIHIPERSDEAQRVFKSSKTSSCDKSDTCF", "values": [{"measurement": "binding result", "setting": "L104EA29YIg [2]", "value": "binds"}]}
